# Values quoted from earlier work, collected in US20050191360A1, “Particles for inhalation having rapid release properties” (Advanced Inhalation Research, Inc., priority 2004, published 2005).
# Details: rat, in vivo
substance,measurement,value
PTH34: parathyroid hormone fragment given as dry powder formulation via intratracheal delivery (Patton et al.),time at which the peak PTH level was reached,about 15 minutes
